US20240043508A1 (KOOKMIN UNIVERSITY INDUSTRY ACADEMY COOPERATION FOUNDATION, published 2024)
Like-named read-outs stand apart in the source and are kept apart here.

Assays:
[1] = biological target: T1, SARS-CoV-2 S protein of the wild-type, on pseudotyped lentiviral particles (SARS-CoV-2); test: cell-based or functional assay
[2] = biological target: T1, SARS-CoV-2 S protein of the wild-type, …; test: cell-based or functional assay; remark: listed apart in the source
SARS-CoV RBD = SARS-CoV RBD (SARS-CoV, UniProt P59594 306-527); test: ELISA, 0.1 ug antigen coated
[3] = biological target: T2, SARS-CoV-2 RBD (wild-type) (SARS-CoV-2, UniProt P0DTC2 319-541); test: SPR, RBD immobilised
[4] = biological target: T2, SARS-CoV-2 RBD (wild-type); test: competition ELISA: RBD-His with antibody, binding to coated hACE2-Fc
[5] = biological target: T2, SARS-CoV-2 RBD (wild-type); test: SPR, RBD immobilised, 1:1 model
[6] = biological target: T2, SARS-CoV-2 RBD (wild-type)
[7] = biological target: T2, SARS-CoV-2 RBD (wild-type); test: SPR (FIG. 24)
[8] = biological target: SARS-CoV-2 RBD protein (Fc-tagged) (SARS-CoV-2, UniProt P0DTC2 319-541)
SARS-CoV-2 S1 domain = SARS-CoV-2 S1 domain (SARS-CoV-2, UniProt P0DTC2 14-685); test: ELISA: IgG titrated on plate-bound S1, absorbance at 450 nm
[9] = biological target: T2, SARS-CoV-2 RBD (wild-type); test: ELISA, antigen coated, antibody titrated, A450
[10] = biological target: T2, SARS-CoV-2 RBD (wild-type); remark: listed apart in the source

| Binder | binding result (SARS-CoV RBD) | Kd [6] | IC50 [8] | Kd (SARS-CoV-2 S1 domain) | further results |
| --- | --- | --- | --- | --- | --- |
| RD3 (antibody, V domains shown, also called K102.1) VH: EVQLLESGGGLVQPGGSLRLSCAASGFTFSDYAMSWVRQAPGKGLEWVSWIYSGSGNKYYADSVKGRFTISRDNSKNTLYLQMNSLRAEDTAVYYCARFPIARTSNSQSSYDGMDVWGQGTLVTVSS VL: QSVLTQPPSASGTPGQRVTISCSGSSSNIGSNAVSWYQQLPGTAPKLLIYADNKRPSGVPDRFSGSKSGTSASLAISGLRSEDEADYYCGAWDSSLNAYVFGGGTKLTVL | binds | – | – | – | IC50 (nM), pseudotyped virus infection [1]: 1.94 nM; IC50 (nM), pseudovirus neutralization, luciferase in 293T/hACE2 cells [2]: 1.94 nM |
| RB6 (antibody, V domains shown, also called K102.2) VH: EVQLLESGGGLVQPGGSLRLSCAASGFTFSSYDMSWVRQAPGKGLEWVSGISYSGGSTYYADSVKGRFTISRDNSKNTLYLQMNSLRAEDTAVYYCARDVNFVPLVTFDYWGQGTLVTVSS VL: QSVLTQPPSASGTPGQRVTLSCTGSSSNIGSNSVTWYQQLPGTAPKLLIYDDNQRPSGVPDRFSGSKSGTSASLAISGLRSEDEADYYCGTWDYSLSAYVFGGGTKLTVL | binds | 0.716 nM | 1.95 nM | 3.2 nM | Kd [3]: 2.2 nM; kon [3]: 197000 M⁻¹ s⁻¹; IC50 [4]: 4.94 nM; Kd [5]: 2.2 nM; kon [5]: 197000 M⁻¹ s⁻¹; Kd [7]: 2.46 nM; fold affinity against K102.3 [7]: ~5 fold |
| RG6 (antibody, V domains shown) VH: EVQLLESGGGLVQPGGSLRLSCAASGFTFSDYSMSWVRQAPGKGLEWVSGIYHSDGSKYYADSVKGRFTISRDNSKNTLYLQMNSLRAEDTAVYYCARFDPVFDYWGQGTLVTVSS VL: QSVLTQPPSASGTPGQRVTISCTGSSSNIGSNAVNWYQQLPGTAPKLLIYADSNRPSGVPDRFSGSKSGTSASLAISGLRSEDEADYYCGAWDASLSAYVFGGGTKLTVL | – | 0.481 nM | – | 0.22 nM | – |
| RD10 (antibody, V domains shown) VH: EVQLLESGGGLVQPGGSLRLSCAASGFTFSDYAMSWVRQAPGKGLEWVSAIYPGGGSTYYADSVKGRFTISRDNSKNTLYLQMNSLRAEDTAVYYCARNLFGFDYWGQGTLVTVSS VL: QSVLTQPPSASGTPGQRVTISCTGSSSNIGSNAVYWYQQLPGTAPKLLIYDDSNRPSGVPDRFSGSKSGTSASLAISGLRSEDEADYYCGSWDDSLSAYVFGGGTKLTVL | – | 0.55 nM | 1.97 nM | 0.317 nM | Kd [9]: ~0.1 nM |
| HA-tagged K102.2 (K102.2-HA) (antibody, V domains shown) VH: EVQLLESGGGLVQPGGSLRLSCAASGFTFSSYDMSWVRQAPGKGLEWVSGISYSGGSTYYADSVKGRFTISRDNSKNTLYLQMNSLRAEDTAVYYCARDVNFVPLVTFDYWGQGTLVTVSS VL: QSVLTQPPSASGTPGQRVTLSCTGSSSNIGSNSVTWYQQLPGTAPKLLIYDDNQRPSGVPDRFSGSKSGTSASLAISGLRSEDEADYYCGTWDYSLSAYVFGGGTKLTVL | – | – | – | – | EC50 (read off the curve) [10]: ~0.05 µg/mL |
| RB4 (antibody, V domains shown) VH: EVQLLESGGGLVQPGGSLRLSCAASGFTFSDYSMSWVRQAPGKGLEWVSGIYHSDGSKYYADSVKGRFTISRDNSKNTLYLQMNSLRAEDTAVYYCARFDPVFDYWGQGTLVTVSS VL: QSVLTQPPSASGTPGQRVTISCSGSSSNIGSNAVSWYQQLPGTAPKLLIYDNNHRPSGVPDRFSGSKSGTSASLAISGLRSEDEADYYCGSWDDSLNAYVFGGGTKLTVL | – | 0.186 nM | 0.841 nM | 0.169 nM | – |
